Patent publication US20130331517A1, “Novel Polymer Derivative Of Cytidine Metabolic Antagonist” (NIPPON KAYAKU KABUSHIKI KAISHA, priority 2010, published 2013)

Columns and labels:
[1] = tested on: human lung cancer LC-11-JCK; assay: Anti-tumor activity test, human lung cancer LC-11-JCK transplanted subcutaneously in F344 nude rat; type: in vivo; settings: for Relative ratio of tumor volume: F344 nude rat, day 23 after administration start, relative to no-treatment group (100.0); for Anti-tumor effects in comparison to 3′-ethynylcytidine as the control drug: maximum dose, when the change of the body weight was about 10% or less of the maximum decrease rate
Description: The human lung cancer LC-11-JCK which had been subcultured under the skin of a rat was made to a block of about 2 mm square, and transplanted subcutaneously into the dorsal part of F344 nude rat using an over-needle catheter. From day 13 after the tumor transplant, the polymer derivative of the present invention (Compound 5, Compound 10) was administered intravenously single time in the dose listed in Table 1. In addition, the control drug (3′-ethynylcytidine; ECyd) was administered subcutaneously by infusion over 24 hours using Alzet pump. Meanwhile, each compound was used as dissolved in 5% glucose solution. The administration was performed such that the dose when the change of the body weight was about 10% of the maximum decrease rate was taken as the maximum dose.
The tumor volume was measured on the start day of the administration and on day 23 after the administration start with vernier calipers for the major axis (L mm) and minor axis (W mm) of the tumor, and the tumor volume was calculated from (L×W^2)/2, and the relative ratio of the tumor volume with respect to the tumor volume of the no-treatment group (control) was listed in Table 1.

[2] = Medicament release of 3′-ethynylcytidine polymer derivative in the absence of enzyme (PBS, pH 7.4, 37° C.); type: physicochemical; settings: 1 mg/mL, no hydrolysis enzyme
Description: Compound 5, Compound 10, Compound 15, Compound 21 and Compound 22, and PEG-Glu-ECyd in which 3′-ethynylcytidine derivative is bonded to a polyethylene glycol-polyglutamic acid block copolymer, and PEG-Glu-(ECyd, PheOBzl) in which 3′-ethynylcytidine and phenylalanine benzyl ester are bonded to a polyethylene glycol-polyglutamic acid block copolymer, which were manufactured by the method described in the pamphlet of WO 2006/120914 A as the comparative compounds, were dissolved in PBS solution (phosphate buffered saline; pH 7.4) at 1 mg/mL of the concentration, respectively, and incubated at 37° C. The 3′-ethynylcytidine released from each polymer derivative was quantified using HPLC. The ratio to the total amount of the medicament in the polymer derivative found out from the quantified value and the content of the medicament of the polymer derivative are indicated in FIGS. 1 to 3.

[3] = Particle size (RMS radius) and micelle formation in aqueous solution by dynamic and static light scattering; type: physicochemical; settings: aqueous solution 1 mg/mL; for RMS radius by Gaussian distribution analysis (dynamic light scattering): volume weighting
Description: Hereinafter, the present invention will be further explained with Examples. However, the present invention is not limited to these Examples. Meanwhile, when the compound of the present invention forms particles such as a micelle in an aqueous solution in Examples, the size of the particles (particle size) is indicated with Gaussian distribution analysis by dynamic light scattering method or by static light scattering method as RMS radius. The former was measured with Zeta Potential/Particle sizer NICOMP™ 380ZLS (manufactured by Particle Sizing Systems), and the latter was measured with DAWN EOS™ (manufactured by Wyatt Technology), and calculated.

[4] = single intravenous administration, dose 6 mg/Kg in conversion to 3′-ethynylcytidine
[5] = single intravenous administration, dose 12 mg/Kg in conversion to 3′-ethynylcytidine

Compound	Relative ratio of tumor volume ([1]; subcutaneous infusion over 24 hours using Alzet pump, dose 6 mg/Kg)	Release of 3′-ethynylcytidine from the polymer derivative [2]	Release rate of 3′-ethynylcytidine relative to the comparative compounds [2]	Micelle formation in water [3]	RMS radius by static light scattering method [3] [nm]	RMS radius by Gaussian distribution analysis (dynamic light scattering) [3] [nm]	Relative ratio of tumor volume [1, 4]	Relative ratio of tumor volume [1, 5]	Anti-tumor effects in comparison to 3′-ethynylcytidine as the control drug [1]	Release of 3′-ethynylcytidine relative to PEG-Glu-ECyd [2]
C#C[C@@]1(O)[C@@H](CO)O[C@@H](n2ccc(N)nc2=O)[C@@H]1O [Control drug, 3′-ethynylcytidine, reference compound]	49.4	–	–	–	–	–	–	–	–	–
amide-bonded body of block copolymer including methoxy polyethylene-glycol structural moiety having 12,000 of the molecular weight and polyglutamic acid moiety having 21 of the polymerization number, to aspartic acid-1-adamantane methyl amide-4-(3′-ethynylcytidine)amide [Compound 15]	–	release 3′-ethynylcytidine despite the absence of a hydrolysis enzyme	equal to or more than that of the comparative compounds	formed a micelle in water	13	20	–	–	–	–
amide-bonded body of block copolymer including methoxy polyethylene-glycol structural moiety having 12,000 of the molecular weight and polyglutamic acid moiety having 21 of the polymerization number, to aspartic acid-1-butyl amide-4-(3′-ethynylcytidine)amide [Compound 10]	–	release 3′-ethynylcytidine despite the absence of a hydrolysis enzyme	equal to or more than that of the comparative compounds	did not form a micelle in water at this concentration	–	–	46.7	26.4	strong anti-tumor effects	more rapidly than PEG-Glu-ECyd
amide-bonded body of block copolymer including methoxy polyethylene-glycol structural moiety having 12,000 of the molecular weight and polyglutamic acid moiety having 21 of the polymerization number, to aspartic acid-1-phenylalanine-(4-phenylbutyl ester)-4-(3′-ethynylcytidine)amide [Compound 21]	–	release 3′-ethynylcytidine despite the absence of a hydrolysis enzyme	equal to or more than that of the comparative compounds	formed a micelle in water	40	41	–	–	–	–
amide-bonded body of block copolymer including methoxy polyethylene-glycol structural moiety having 12,000 of the molecular weight and polyglutamic acid moiety having 21 of the polymerization number, to aspartic acid-1-phenylbutyl amide-4-(3′-ethynylcytidine)amide [Compound 5]	–	release 3′-ethynylcytidine despite the absence of a hydrolysis enzyme	equal to or more than that of the comparative compounds	forms a micelle in water	11	18	44.9	29.3	strong anti-tumor effects	more rapidly than PEG-Glu-ECyd
amide-bonded body of block copolymer including two methoxy polyethylene glycol moieties having 5,000 of the molecular weight and polyglutamic acid moiety having 21 of the polymerization number, to aspartic acid-1-adamantane methyl amide-4-(3′-ethynylcytidine)amide [Compound 22]	–	release 3′-ethynylcytidine despite the absence of a hydrolysis enzyme	equal to or more than that of the comparative compounds	formed a micelle in water	8	14	–	–	–	–
